{"source": "the DeepSol protein solubility set", "data": [{"assay": "soluble on expression in E. coli; label from the status in PepcDB or PDB records", "values": [{"sequence": "MDILILFYNTMWGFPLEFRKEDLPGGCVITTDRNLIAKADAVVFHLPDLPSVMEDEIDKREGQLWVGWSLECEENYSWTKDPEFRESFDLWMGYHQEDDIVYPYYGPDYGKMLVTARREKPYKKKACMFISSDMNRSHRQEYLKELMQYTDIDSYGKLYRNCELPVEDRGRDTLLSVIGDYQFVISFENAIGKDYVTEKFFNPLLAGTVPVYLGAPNIREFAPGENCFLDICTFDSPEGVAAFMNQCYDDEALYERFYAWRKRPLLLSFTKKLEQVRSNPLIRLCQKIHELKLGGILEHHHHHH", "soluble on expression in E. coli": "not soluble"}, {"sequence": "MDINKMTYAVQSALQQAVELSQQHKLQNIEIEAILSAALNESESLYKSILERANIEVDQLNKAYEDKLNTYASVEGDNIQYGQYISQQANQLITKAESYMKEYEDEYISMEHILRSAMDIDQTTKHYINNKVEVIKEIIKKVRGGNHVTSQNPEVNYEALAKYGRDLVEEVRQGKMDPVIGRDEEIRNTIRILSRKTKNNPVLIGEPGVGKTAIVEGLAQRIVKKDVPESLLDKTVFELDLSALVAGAKYRGEFEERLKAVLKEVKESDGRIILFIDEIHMLVGAGKTDGAMDAGNMLKPMLARGELHCIGATTLNEYREYIEKDSALERRFQKVAVSEPDVEDTISILRGLKERYEVYHGVRIQDRALVAAAELSDRYITDRFLPDKAIDLVDQACATIRTEMGSNPTELDQVNRRVMQLEIEESALKNESDNASKQRLQELQEELANEKEKQAALQSRVESEKEKIANLQEKRAQLDESRQALEDAQTNNNLEKAAELQYGTIPQLEKELRELEDNFQDEQGEDTDRMIREVVTDEEIGDIVSQWTGIPVSKLVETEREKLLHLSDILHKRVVGQDKAVDLVSDAVVRARAGIKDPNRPIGSFLFLGPTGVGKTELAKSLAASLFDSEKHMIRIDMSEYMEKHAVSRLIGAPPGYIGHDEGGQLTEAVRRNPYSVILLDEVEKAHTDVFNVLLQILDEGRLTDSKGRSVDFKNTIIIMTSNIGSQVLLENVKETGEITESTEKAVMTSLNAYFKPEILNRMDDIVLFKPLSIDDMSMIVDKILTQLNIRLLEQRISIEVSDDAKAWLGQEAYEPQYGARPLKRFVQRQIETPLARMMIKEGFPEGTTIKVNLNSDNNLTFNVEKIHE", "soluble on expression in E. coli": "not soluble"}, {"sequence": "MDITPALTEMELDHKPTCETVPGLPQKKHYRQRAHSNPHSDHDIEYPLTPNHMDWTKYYGDYTKGRQVDFADIGCGYGGLLMRLSPKYPDNLMIGMEIRVKVSDYVNEKIQALRKHHAEAGHYRNVAVLRSNAMKYMPNYFHKGQLSKMFFLFPDPHFKNKKHKWRIITPTLLSEYAYVLREGGIIYTITDVKDLHEWMVKHLSEHPLFERLTEEEMKKDPIVEMLFESTEEGQKVTRNDGGKWPAIFRRLPNPAL", "soluble on expression in E. coli": "not soluble"}, {"sequence": "MDIVDEKWEEYLKNLDEMSKSALLETFNIGASHAATALSEMTGKEVNISVPDLKIIAIKNVPEVVGEDVKVAVYIELGKDFSSHAFFIADYEDALRMFDIIMGNPLGTTKEMDEMVKSSFMEVGNILISAFANALSEFLGITIEQTPPSLAIDFLPAILDFALADIGKYCDYTIILQTNIKISDVKFEEHFLLFPKPEDMKKILEKLLGGFA", "soluble on expression in E. coli": "soluble"}, {"sequence": "MDKIIFQRVTDCEYPSLFSIYKKYLKPTIEEALGWDELYQQQRFNQSYQKEWFDWIMYNGERLGIICTKPDAIRSTIHIHLLIVFEKYQNKGVGTAVMKCYQKHYSDAVTKSCLSAFKVNKSVINFYLSLGYQIVREDEHFVEMERSLCFSGYMGES", "soluble on expression in E. coli": "not soluble"}, {"sequence": "MDKSELFLTFEAKVKGKKINLPDLKIADGVISTEALASALNASAAIAPDAFQRIIKQAYDANIMFLIQQAQIRAQEINKGEVKDWKDLVANAKDAPNQDVTVEVQAYASPDGGVELNEKLSEQREKNTTTALKKQFQKSNIKDVEINAHYTAQDWEGFKQLVEKSDIQDKELVLRVLSMYPDPEQREQEIKNISTVFRQLADDILPQLRRSRLIANVEIIGKSDDEIKRLAAQNPGRLTVEELLYSATLLESPAQKE", "soluble on expression in E. coli": "not soluble"}, {"sequence": "MDKSTPRRTYNLRSADRTTQNSPVSRQSLENHRNASVSLRKRSSTSSLQRIQSEFTFTDSATEERCSRKRRRTQQTHGLPFSSPDAINHQRAFHLDEHKVCSKLTTRLSIEVETSYGSFGKLPYDAVIHILTRTPYNLLSRMVMTSSCWNQTIGAYMRSGAFRRRWLLDIDIAPSSKPLDPFFDMGKLVRCLTINYEWKARLDCLKSFMTLAYESGALIAGLGKMIHAFTNRPDEDIVLEQIDDIVAMLLALVSGLKDDLSAVLFTPETDRELEELDNMPILREEMKLRKKTLNLFLNNGSSDPAHGVNKYFLSSLMKVFKTAHNALPTALFYLLFSPTTIQDDEEVIHWHRLSLLSVVTSEEAEELKPLSRAMCALIQCRNLKHVLPWSKNTIFNLMEEITTYPNPWSMSTFVALNVLEPELVPIGVVARMNRNHEDEAGDIICTMKMLLHRWDMDVYGVMESIIDTIKAVLKPYQRRILFDRCWDWHQRNIDEHRNQMGHFSDIRAEIESQIEVMPVLMKLL", "soluble on expression in E. coli": "not soluble"}, {"sequence": "MDKTQSYDIFLIAPPGLEQVLAEEATACGFDEPRVVPGGVETRGPWSEVMRANLVLRGAGRVLVRIGGFPAVHLAQLDKRARKFAWGDFLRPDRPIRVEAVSRKSKIYHAGAAKQRVERAITEELGAPISDEAEIRLMLRIERDFCTFSIDTSGEALHKRGHKEAVGKAPMRETMAALFLRQCGFDGAEPVLDPMCGSGSFVIEAAEWAAGLMPGRSRSFAFEQLAGFDAAQWQSMRNAAGAGGRPESLYSGSDRNAGAIDASRANATRAGVADFCAFHQRPVSDIRPPEGRPGLVIVNPPYGARIGDQARLRSLYGSLGKVLMDRFSGWRVGLITSEMSLARSTRLPFQAPGPVVDHGGIKVRLYQSVRLR", "soluble on expression in E. coli": "not soluble"}, {"sequence": "MDKVIFYSNIRNLIFKKCSIQFLIINDTVAHKEQVAMREMNQLVNTEDSAWPIIQNWLKDATNHTELLPVNKDLAETALYQLQVTTKSPMGALVYGSGGLLIDNGLEHHHHHH", "soluble on expression in E. coli": "not soluble"}, {"sequence": "MDKVLDSALLSSANKRKGILAIGAHPDDIELGCGASLARLAQKGIYIAAVVMTTGNSGTDGIIDRHEESRNALKILGCHQTIHLNFADTRAHLQLNDMISALEDIIKNQIPSDVEIMRVYTMHDADRHQDHLAVYQASMVACRTIPQILGYETPSTWLSFMPQVFESVKEEYFTVKLAALKKHKS", "soluble on expression in E. coli": "soluble"}, {"sequence": "MDLEMMLDEDYKEGICLINFSQIALSTALVNFPDKEKINLSMVRHLILNSIKFNVKKAKTLGYTKIVLCIDNAKSGYWRRDFAYYYKKNRGKAREESTWDWEGYFESSHKVIDELKAYMPYIVMDIDKYEADDHIAVLVKKFSLEGHKILIISSDGDFTQLHKYPNVKQWSPMHKKWVKIKSGSAEIDCMTKILKGDKKDNVASVKVRSDFWFTRVEGERTPSMKTSIVEAIANDREQAKVLLTESEYNRYKENLVLIDFDYIPDNIASNIVNYYNSYKLPPRGKIYSYFVKAGLSKLTNSINEF", "soluble on expression in E. coli": "soluble"}, {"sequence": "MDLFTRKDGTSIHYSTLGEGYPIVLIHTVLDNYSVFNKLAAELAKSFQVVLIDLRGHGYSDKPRHIEIKDFSDDIVELLKYLYIEEVAFVCHEMGGIIGADISVRYPEFTSSLTLVNPTSIEGELPEERLFRKYAHIIRNWDPEKQDKFLNKRKYYRPRKMNRFLKHVVDTNEISTKEEIQAVKEVFKNADISQTYRNVVVPTKIIAGEFGERTTRLEAKEVADLIQNADFEVYQESSAFPFVEEQERFVEDTAAFINKHHDEKHV", "soluble on expression in E. coli": "not soluble"}, {"sequence": "MDLGEFPAPDPSVLVQNFNISDFNGKWYITSGLNPTFDAFDCQLHEFHTEGDNKLVGNISWRIKTLDSGFFTRSAVQKFVQDPNQPGVLYNHDNEYLHYQDDWYILSSKIENKPEDYIFVYYRGRNDAWDGYGGAVVYTRSSVLPNSIIPELEKAAKSIGRDFSTFIRTDNTCGPEPRSHHHHHH", "soluble on expression in E. coli": "soluble"}, {"sequence": "MDLSNRTVLIVGGTSGIGRELARRFAAAGSTVAVGGRSPEALSELAGEGFGTISIDVTDSASVASARDAVLARYPELDTVVTMPGIMLLEDLRDPAHFEAAATTIDTNLVGTIRVIDAFTPHLVRRGAGTFITVTSGIAFLPFPPMPTYAASKAAVHAYSEALRAQLDGTGVSVVELVPPAVATAGQEKVNPHALPLDDFATEVVQLLSEDPTPREILVKAALMHRWAERDGTYDDLVAQRSQALAMLPSREG", "soluble on expression in E. coli": "not soluble"}, {"sequence": "MDLSQGPVRAAQAAPQVLCTASVHHDHPHAIETLVEALGPVELELILLMASPQTDIPALLARAAAVLPGTRIVGCTTAGEISAAGYTEGEIVAIGMPRAYFKAQTMLIDDLTDYDAQAIIDRMIQTRNDLAAARPEWGHEFNFLLIDGLSTLEDRLVSDLAMGLGPVPLFGGSAGDGERFGTTFVFHEGRAHGNAAVLMQVRTRCPIQVFKTDHLIPTEKRMVVTGADPDRRLVHEINAEPAAREYARVLGKDPEQLTTFTFAAHPVVVRIGGQHHVRSIQRVAENGDLVFFSAIDEGLVLTLAEARDMREHLREELGRLAADGPPAVILGCDCLLRRMEAQQKQVLGALSDILRENRVVGFSTYGEQFNSMHVNQTLTGVAIYPPDDM", "soluble on expression in E. coli": "soluble"}, {"sequence": "MDLSVTHMDDLKTVMEDWKNELLVYKFALDALDTKFSIISQEYNLIHGHNPIEHTKSRVKSFESIVNKLMRKGCEITTKEMKEHIHDIAGVRIICSFISDIYNVVNVLKQHEDLRIVKVKDYIQTPKPNGYRSLHLIIEMPVNLTNRVEYVKAEIQIRTIAMDFWASLEHKIYYKLNNDVPKQLTDELKEAAEIAHYLDEKMLGIKKEVD", "soluble on expression in E. coli": "not soluble"}, {"sequence": "MDLTVEPNLHSLITSTTHKWIFVGGKGGVGKTTSSCSIAIQMALSQPNKQFLLISTDPAHNLSDAFGEKFGKDARKVTGMNNLSCMEIDPSAALKDMNDMAVSRANNNGSDGQGDDLGSLLQGGALADLTGSIPGIDEALSFMEVMKHIKRQEQGEGETFDTVIFDTAPTGHTLRFLQLPNTLSKLLEKFGEITNKLGPMLNSFMGAGNVDISGKLNELKANVETIRQQFTDPDLTTFVCVCISEFLSLYETERLIQELISYDMDVNSIIVNQLLFAENDQEHNCKRCQARWKMQKKYLDQIDELYEDFHVVKMPLCAGEIRGLNNLTKFSQFLNKEYNPITDGKVIYELEDKEGLVPRGSLEHHHHHH", "soluble on expression in E. coli": "soluble"}, {"sequence": "MDMMWISYHLKKGGRRLRIRIGIDIGSTHTDAVALEGKELIVADKVMTTPDLTTGLLNAISRVMKKLGERKNEVDTLMIGTTHGLNALHQGKGLNRVATIRIGLPAGEGVPPVFDWPEQLSNFVTYRYMVRGGHEYTGEEIVELDEGKIKEIAEAINGKVDAIAISSIFSVVNSSHEIRAREILREKG", "soluble on expression in E. coli": "not soluble"}, {"sequence": "MDMQHDDLNYEYLYGTTYPLMKNAGKAVADAVMKNYPDARTVCVVAGTGNNGGDAIVAGSILSAKYDVRVLIVTEVRSELARRALSEYGGRVIGLDGMEECMKCDVIIDGIFGVGISGDPKDPYRSVIENINRSCSHVVSVDIPSGLGTRYAVKPEITVTFTMEKYGMNQDNSGKIIVADIGIPPDVRKYAGPGDLLYYPKPDPSSHKGMNGTLAIVGGWEFHGSSVIAALAAERIGLDLVRVFVSPRNYQIVSGYDPGIIVRQVEKLDEKKLSEIYGNSAILLGPGMGKGDDAMEAARKIVSDSRVPMVVDADALDAVGAYSGSFAGRKIIITPHKGEFRRISGFEPTEENAISYARKKGLIVVLKGQVDVITNGEEVHYAKGGNARMTMGGTGDLLAGIISAFLARSVDPMRACLMGTYLNKALGEAAYSKHGYWYTVTDMISEIPGVMGKYIKI", "soluble on expression in E. coli": "not soluble"}, {"sequence": "MDNEMNYGSDYKFIPATSIESGHGIEVLRDLFCYTIQIVNICFVGNPETNDFVLVDAGMPKCANEIISIAKDRFGTNSRPKAIILTHGHFDHVGGIIELIKHWDVHVYAHQMEIPFLTGQQSYPEPDPTVEGGMVAKMSPLFPNEPIDLGNNVKALPTDGTVPHMPEFRWIHTPGHTPGHISLFREKDRTLIAGDAFVTVKQEYLYKVITQEQEISGPPRYLTTDWKAAKESVLKLEKLKPLTAVTGHGIPMSGELLSTSLKTLVQEFDKIAVPDYGKYIDKKMHLEHHHHHH", "soluble on expression in E. coli": "soluble"}]}]}
